Experimental findings from US20190183976A1 are described below.

The assay has as its target T1, CXCR4-VC (human), P61073.
T1 chain: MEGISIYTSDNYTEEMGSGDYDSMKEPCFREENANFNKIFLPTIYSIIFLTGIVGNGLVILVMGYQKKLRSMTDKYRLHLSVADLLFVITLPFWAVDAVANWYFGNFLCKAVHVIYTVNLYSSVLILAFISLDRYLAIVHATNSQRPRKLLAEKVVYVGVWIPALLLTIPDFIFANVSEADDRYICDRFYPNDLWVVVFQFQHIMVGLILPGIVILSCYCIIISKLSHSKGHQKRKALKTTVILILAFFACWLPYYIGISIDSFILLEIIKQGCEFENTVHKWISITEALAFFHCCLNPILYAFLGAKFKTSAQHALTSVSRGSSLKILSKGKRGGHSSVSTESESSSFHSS
In words: BiFC, U-2 OS cells; score=(positive cells/total cells)x100. Conditions: remark: other sources report otherwise.

B1: CXCR4-VN, P61073 1-352 (receptor, human, UniProt P61073 1-352, looked up, not shown: small tags and cut ends)
chain: MEGISIYTSDNYTEEMGSGDYDSMKEPCFREENANFNKIFLPTIYSIIFLTGIVGNGLVILVMGYQKKLRSMTDKYRLHLSVADLLFVITLPFWAVDAVANWYFGNFLCKAVHVIYTVNLYSSVLILAFISLDRYLAIVHATNSQRPRKLLAEKVVYVGVWIPALLLTIPDFIFANVSEADDRYICDRFYPNDLWVVVFQFQHIMVGLILPGIVILSCYCIIISKLSHSKGHQKRKALKTTVILILAFFACWLPYYIGISIDSFILLEIIKQGCEFENTVHKWISITEALAFFHCCLNPILYAFLGAKFKTSAQHALTSVSRGSSLKILSKGKRGGHSSVSTESESSSFHSS
Molecule B1 yielded a BiFC score of 9.9.
